# From patent publication US20260263646A1 (ENLAZA THERAPEUTICS, published 2026)
# Where two headings read alike, the source gives them in different places. [ ]: non-standard residue; d: D form. Tyr(SO2F) = N[C@@H](Cc1ccc(OS(=O)(=O)F)cc1)C(=O)O
# What was measured:
# [1] = molecular target: T1, PSMA (commercial, Sino Bio cat #15877-H07H) (UniProt Q04609 44-750); assay: SDS-PAGE time course, 37C
# T1 construct: also called receptor
# HER2 on BT-474 cells [2] = molecular target: T2, HER2 on BT-474 cells (human, UniProt P04626 23-1255); assay: cell-based or functional assay
# HER2 on BT-474 cells [3] = molecular target: T2, HER2 on BT-474 cells; assay: flow cytometry on BT-474 cells, pH 6.0
# PSMA on PC3pip cells [4] = molecular target: T3, PSMA on PC3pip cells (UniProt Q04609 1-750, limits assumed); assay: cell-based or functional assay
# T3 sequence (Q04609 whole entry): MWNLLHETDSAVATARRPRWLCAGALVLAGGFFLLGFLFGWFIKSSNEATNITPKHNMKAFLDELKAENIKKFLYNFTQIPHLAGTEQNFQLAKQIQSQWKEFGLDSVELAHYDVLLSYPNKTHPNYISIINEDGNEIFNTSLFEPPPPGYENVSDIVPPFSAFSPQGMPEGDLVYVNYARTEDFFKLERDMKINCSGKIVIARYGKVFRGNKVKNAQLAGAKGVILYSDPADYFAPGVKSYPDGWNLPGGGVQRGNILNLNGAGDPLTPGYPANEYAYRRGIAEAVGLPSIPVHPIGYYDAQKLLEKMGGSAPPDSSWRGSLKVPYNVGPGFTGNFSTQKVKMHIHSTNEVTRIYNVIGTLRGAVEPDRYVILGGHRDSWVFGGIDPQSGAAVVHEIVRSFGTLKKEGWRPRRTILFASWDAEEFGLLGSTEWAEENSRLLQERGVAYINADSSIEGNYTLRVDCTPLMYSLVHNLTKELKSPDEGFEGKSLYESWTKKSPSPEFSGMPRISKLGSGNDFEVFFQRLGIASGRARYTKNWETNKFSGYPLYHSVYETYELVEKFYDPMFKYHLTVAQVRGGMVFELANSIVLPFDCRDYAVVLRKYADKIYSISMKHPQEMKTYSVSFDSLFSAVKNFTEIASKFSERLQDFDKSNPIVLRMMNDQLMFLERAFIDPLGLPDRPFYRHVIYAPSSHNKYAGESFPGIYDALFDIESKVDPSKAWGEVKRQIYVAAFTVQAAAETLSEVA
# PSMA on PC3pip cells [5] = molecular target: T3, PSMA on PC3pip cells; assay: cell-based or functional assay; remark: listed apart in the source
# PSMA on LNCaP cells [6] = molecular target: T4, PSMA on LNCaP cells (human, UniProt Q04609 1-750); assay: flow cytometry on LNCaP cells
# T4 construct: whole, on cells; also called LNCaP (PSMA+)
# T4 sequence (Q04609 whole entry): as above
# [7] = molecular target: T5, PSMA with a Fc tag (Acrobiosystem PSA-H5264) (UniProt Q04609 44-750); assay: biolayer interferometry, PSMA-Fc on AHC sensor
# T5 construct: Printed 'Fe tag'; captured on AHC sensors; also called PSMA with a Fe tag
# T5 sequence (Q04609 44-750 limits assumed): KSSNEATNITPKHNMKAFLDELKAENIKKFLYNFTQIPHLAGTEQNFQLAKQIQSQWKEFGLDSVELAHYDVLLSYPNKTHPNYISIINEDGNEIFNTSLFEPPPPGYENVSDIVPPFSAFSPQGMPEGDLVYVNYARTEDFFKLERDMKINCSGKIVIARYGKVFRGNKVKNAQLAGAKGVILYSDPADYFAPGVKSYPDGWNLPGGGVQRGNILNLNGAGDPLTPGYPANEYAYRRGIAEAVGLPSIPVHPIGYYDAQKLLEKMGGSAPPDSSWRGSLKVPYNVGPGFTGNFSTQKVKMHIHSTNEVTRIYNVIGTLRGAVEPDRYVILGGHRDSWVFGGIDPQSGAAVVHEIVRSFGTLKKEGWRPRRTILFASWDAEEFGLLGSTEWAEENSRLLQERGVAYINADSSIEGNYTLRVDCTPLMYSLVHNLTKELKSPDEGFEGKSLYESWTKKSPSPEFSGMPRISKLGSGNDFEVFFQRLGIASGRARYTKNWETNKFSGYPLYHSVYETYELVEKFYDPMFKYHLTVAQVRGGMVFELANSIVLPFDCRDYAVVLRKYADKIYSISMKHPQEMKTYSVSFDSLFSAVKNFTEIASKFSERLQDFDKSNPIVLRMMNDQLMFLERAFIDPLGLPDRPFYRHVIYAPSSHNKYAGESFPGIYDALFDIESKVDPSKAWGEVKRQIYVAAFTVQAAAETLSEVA
# PSMA on LNCaP cells [8] = molecular target: T4, PSMA on LNCaP cells; assay: flow cytometry on LNCaP cells; remark: listed apart in the source
# [9] = molecular target: T6, Fc-tagged Her2 (Acrobiosystem #HER2-H5253) (UniProt P04626 23-652); assay: SDS-PAGE time course
# T6 construct: also called Her2-Fc; FcHer2
# T1 sequence (Q04609 44-750 limits assumed): as above
binder,measurement,setting,value
"C40-102FSY (bispecific antibody, FSY at 102 of the first sdAb, also called C40-FSY; C1-C101A/C104A/H102(FSY)-L1-C1-C39) QVQLQESGGGSVQAGGSLRLSCTAPGYTDSNYYMSWFRQAPGKEREWVAGVNTGRGSTSYADSVKGRFTISQDNAKNTMFLQMNSLKPEDTAIYYCAVAAAXFADSLPKTQDEYILWGQGTQVTVSSAAAYPYDVPDYGSGGGGSGGGGSQVQLQESGGGSVQAGGSLRLSCTAPGYTDSNYYMSWFRQAPGKEREWVAGVNTGRGSTSYADSVKGRFTISQDNAKNTMFLQMNSLKPEDTAIYYCAVAAAHFADSLPKTQDEYILWGQGTQVTVSSAAAYPYDVPDYGSHHHHHH",fold crosslinking rate against C39-102FSY,[1],2 fold
same,t1/2 maximum crosslinking,[1],~30 min
"C39-102FSY (VHH, FSY at 102 (X of the entry), pelB leader cleaved off; also called C1-C101A/C104A/H102(FSY); C39-FSY C1) VHH: QVQLQESGGGSVQAGGSLRLSCTAPGYTDSNYYMSWFRQAPGKEREWVAGVNTGRGSTSYADSVKGRFTISQDNAKNTMFLQMNSLKPEDTAIYYCAVAAAXFADSLPKTQDEYILWGQGTQVTVSS",t1/2 maximum crosslinking,[1],~60 min
"C33-54TYR (VHH, PEG8-vc-PABC-MMAE on the C-terminal GGG) VHH: QVQLQESGGGSVQAGGSLKLTCAASGYIFNSCGMGWYRQSPGRERELVSRISGYGDTWHKESVKGRFTISQDNVKKTLYLQMNSLKPEDTAVYFCAVCYNLETYWGQGTQVTVSS","IC50 (nM) - 5 h, BT474 viability after 5 h washout",HER2 on BT-474 cells [2],21.6 nM
same,"IC50 (nM) - 6 days, BT474 viability, continuous exposure",HER2 on BT-474 cells [2],0.328 nM
same,EC50,HER2 on BT-474 cells [3],2.5 nM
"C33-52TYR (VHH, PEG8-vc-PABC-MMAE on the C-terminal GGG, by sortase ligation) VHH: QVQLQESGGGSVQAGGSLKLTCAASGYIFNSCGMGWYRQSPGRERELVSRIYGDGDTWHKESVKGRFTISQDNVKKTLYLQMNSLKPEDTAVYFCAVCYNLETYWGQGTQVTVSS","IC50 (nM) - 5 h, BT474 viability after 5 h washout",HER2 on BT-474 cells [2],> 100 nM
same,"IC50 (nM) - 6 days, BT474 viability, continuous exposure",HER2 on BT-474 cells [2],8.42 nM
same,EC50,HER2 on BT-474 cells [3],160 nM
"C26-54FSY (VHH, FSY at 54 (X of the entry); MC-PEG8-VC-PABC-MMAE on the C-terminal Cys) VHH: EVQLVESGGGLVQPGGSLTLSCAASRFMISEYSMHWVRQAPGKGLEWVSTINPXGTTDYAESVKGRFTISRDNAKNTLYLQMNSLKPEDTAVYYCDGYGYRGQGTQVTVSS",fold potency against C26-54TYR,PSMA on PC3pip cells [4],3.57 fold
same,"IC50 PC3pip (M), cell viability by CellTiter-Glo after 4 days",PSMA on PC3pip cells [5],9.39e-10 M
"C2-54TYR (VHH, C2 sdAb with tyrosine at position 54; also called C2-TYR) VHH: EVQLVESGGGLVQPGGSLTLSCAASRFMISEYSMHWVRQAPGKGLEWVSTINPYGTTDYAESVKGRFTISRDNAKNTLYLQMNSLKPEDTAVYYCDGYGYRGQGTQVTVSS",EC50,PSMA on LNCaP cells [6],6.75 nM
same,Kd,[7],9.1 nM
"C2-54FSY (VHH, FSY at 54, also called C2-A54(FSY); C2-FSY) VHH: EVQLVESGGGLVQPGGSLTLSCAASRFMISEYSMHWVRQAPGKGLEWVSTINPXGTTDYAESVKGRFTISRDNAKNTLYLQMNSLKPEDTAVYYCDGYGYRGQGTQVTVSS",EC50,PSMA on LNCaP cells [8],12.2 nM
same,Kd,[7],10.9 nM
"C38-FSY (designed binder, also called C15-66FSY-C16; biparatopic DARPin) MDLGKKLLEAARAGQDDEVRILMANGADVNAHDFYGITPLHLAANFGHLEIVEVLLKHGADVNAF[Tyr(SO2F)]YDNTPLHLAADAGHLEIVEVLLKYGADVNASDRDGHTPLHLAAREGHLEIVEVLLKNGADVNAQDKFGKTAFDISIDNGNEDLAEILQKLGGGGSRSDLGKKLLEAARAGQDDEVRILMANGADVNAKDEYGLTPLYLATAHGHLEIVEVLLKNGADVNAVDAIGFTPLHLAAFIGHLEIAEVLLKHGADVNAQDKFGKTAFDISIGNGNEDLAEILQKLNGS",crosslinking,[9],50%
"C28-101FSY (VHH, FSY at 101 (X of the entry); MC-PEG8-VC-PABC-MMAE on the C-terminal Cys) VHH: QVQLQESGGGSVEAGGSLRLSCARSGWPYSTYSMNWFRQAPGKEREAVAGISSTMSGIIFAESKAGQFTISQDNAKNTVYLQMNNLKPEDTAIYYCAARRXFSLSSSSDDFDYWGQGTQVTVSS",fold potency against C28-101TYR,PSMA on PC3pip cells [4],> 400 fold
same,"IC50 PC3pip (M), cell viability by CellTiter-Glo after 4 days",PSMA on PC3pip cells [5],1.8e-10 M
